Experimental data taken from patent US20210214444A1 (TAYU HUAXIA BIOTECH MEDICAL GROUP, published 2021).

Target: hPD-L1 (Fortebio Octet assay of Example 3) (human, UniProt Q9NZQ7 19-238, limits assumed)
Test: BLI, Fortebio Octet; format not stated

Chain of hPD-L1 (Fortebio Octet assay of Example 3) (Q9NZQ7 19-238 limits assumed): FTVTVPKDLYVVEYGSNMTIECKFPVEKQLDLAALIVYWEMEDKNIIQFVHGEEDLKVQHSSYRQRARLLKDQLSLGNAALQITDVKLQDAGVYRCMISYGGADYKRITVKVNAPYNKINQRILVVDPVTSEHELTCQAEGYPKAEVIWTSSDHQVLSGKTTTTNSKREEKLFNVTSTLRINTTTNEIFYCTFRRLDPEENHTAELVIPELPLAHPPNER

B1: humanized anti-hPD-L1 antibody variant 2 (antibody, V domains shown)
VH: QVQLVQSGAEVKKPGASVKVSCKASGFNIKDTYMYWVRQAPGQGLEWMGRIDPANDNTKYAQKFQGRVTITADTSTSTAYMELSSLRSEDTAVYYCARAKNLLNYFDYWGQGTLVTVSS
VL: DIQMTQSPSSLSASVGDRVTITCRASQEISGYLSWLQQKPGKAPKRLIYATSTLQSGVPSRFSGSRSGTDYTLTISSLQPEDFATYYCLQYAIYPLTFGQGTKLEIKR
notes: Human IgG1; also called Humanized VH 1 + Humanized VL2; anti-PD-L1 IgG1
koff: 2.72e-05 s⁻¹
